This passage reports Kd results from publication PMC3826915 (Nature medicine, 2013).

B1: Recombinant human cold-inducible RNA-binding protein (rhCIRP) (natural protein, UniProt Q14011-1 1-172, looked up)
chain: MASDEGKLFVGGLSFDTNEQSLEQVFSKYGQISEVVVVKDRETQRSRGFGFVTFENIDDAKDAMMAMNGKSVDGRQIRVDQAGKSSDNRSRGYRGGSAGGRGFFRGGRGRGRGFSRGGGDRGYGGNRFESRSGGYGGSRDYYSSRSQSGGYSDRSSGGSYRDSYDSYATHNE
B2: Recombinant human MD2 (rhMD2), Glu17-Asn160 (natural protein, UniProt Q9Y6Y9 17-160, looked up)
chain: EAQKQYWVCNSSDASISYTYCDKMQYPISINVNPCIELKRSKGLLHIFYIPRRDLKQLYFNLYITVNTMNLPKRKEVICRGSDDDYSFCRALKGETVNTTISFSFKGIKFSKGKYKCVVEAISGSPEEMLFCLEFVILHQPNSN

In one assay the target is TLR4 (Homo sapiens) (UniProt O00206). The settings on record: cited from earlier work.
Sequence of TLR4 (Homo sapiens) (O00206 24-631): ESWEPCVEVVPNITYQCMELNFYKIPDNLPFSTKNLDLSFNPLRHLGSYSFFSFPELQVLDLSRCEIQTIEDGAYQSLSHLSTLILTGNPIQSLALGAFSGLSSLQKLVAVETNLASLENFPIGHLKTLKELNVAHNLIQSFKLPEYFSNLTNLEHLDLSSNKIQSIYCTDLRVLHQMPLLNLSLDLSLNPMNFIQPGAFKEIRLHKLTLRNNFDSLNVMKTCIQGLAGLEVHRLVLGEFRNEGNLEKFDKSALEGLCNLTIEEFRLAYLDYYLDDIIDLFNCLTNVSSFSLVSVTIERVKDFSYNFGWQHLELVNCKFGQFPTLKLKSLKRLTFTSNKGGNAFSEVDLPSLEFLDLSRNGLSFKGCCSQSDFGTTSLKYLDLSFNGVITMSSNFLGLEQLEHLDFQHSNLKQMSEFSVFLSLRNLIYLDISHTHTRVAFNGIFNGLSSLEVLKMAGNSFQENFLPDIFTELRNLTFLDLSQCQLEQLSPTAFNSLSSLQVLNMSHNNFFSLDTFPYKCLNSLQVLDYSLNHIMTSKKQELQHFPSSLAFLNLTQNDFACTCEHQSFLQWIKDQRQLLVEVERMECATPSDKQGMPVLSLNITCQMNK
A further assay concerns the target TLR4/MD2 (Homo sapiens) (UniProt O00206). The experiment in a line: SPR. The settings on record: cited from earlier work.
The target of a further assay is MD2 (Homo sapiens) (UniProt Q9Y6Y9). The settings on record: cited from earlier work.
Assay [1] addresses Recombinant human RAGE (rhRAGE), Ala23-Ala344 (human, UniProt Q15109 23-344). Put plainly: SPR. For orientation: Surface plasmon resonance follows binding to a sensor surface in real time, without labels.
Assay [2] addresses Recombinant human TLR2 (rhTLR2), Glu21-Leu590 (human, UniProt O60603 21-590). Put plainly: SPR.
For assay [3], the target named is Recombinant human TLR4/MD2 complex (rhTLR4/MD2) (human, UniProt O00206 24-631; Q9Y6Y9 17-160). Put plainly: SPR.
Sequence of Recombinant human TLR4/MD2 complex (rhTLR4/MD2) (O00206 24-631, one chain of several): as the sequence (O00206 24-631) above
Assay [4] concerns the target Recombinant human TLR4 (rhTLR4), Glu24-Lys631 (human, UniProt O00206 24-631). The experiment in a line: SPR.
The target in assay [5] is B1. The experiment in a line: SPR.

Sequence of Recombinant human TLR4 (rhTLR4), Glu24-Lys631 (O00206 24-631): as above
Sequence of Recombinant human RAGE (rhRAGE), Ala23-Ala344 (Q15109 23-344): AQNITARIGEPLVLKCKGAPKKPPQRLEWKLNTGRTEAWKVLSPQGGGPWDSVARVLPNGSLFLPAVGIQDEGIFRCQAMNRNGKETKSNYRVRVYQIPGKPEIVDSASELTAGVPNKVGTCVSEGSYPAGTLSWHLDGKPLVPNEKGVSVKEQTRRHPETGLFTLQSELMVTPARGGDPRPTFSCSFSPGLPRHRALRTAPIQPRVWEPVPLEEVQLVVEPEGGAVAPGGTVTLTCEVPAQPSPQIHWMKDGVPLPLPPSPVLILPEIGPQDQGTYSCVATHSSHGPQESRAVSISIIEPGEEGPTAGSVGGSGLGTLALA
Sequence of TLR4/MD2 (Homo sapiens) (O00206 24-839): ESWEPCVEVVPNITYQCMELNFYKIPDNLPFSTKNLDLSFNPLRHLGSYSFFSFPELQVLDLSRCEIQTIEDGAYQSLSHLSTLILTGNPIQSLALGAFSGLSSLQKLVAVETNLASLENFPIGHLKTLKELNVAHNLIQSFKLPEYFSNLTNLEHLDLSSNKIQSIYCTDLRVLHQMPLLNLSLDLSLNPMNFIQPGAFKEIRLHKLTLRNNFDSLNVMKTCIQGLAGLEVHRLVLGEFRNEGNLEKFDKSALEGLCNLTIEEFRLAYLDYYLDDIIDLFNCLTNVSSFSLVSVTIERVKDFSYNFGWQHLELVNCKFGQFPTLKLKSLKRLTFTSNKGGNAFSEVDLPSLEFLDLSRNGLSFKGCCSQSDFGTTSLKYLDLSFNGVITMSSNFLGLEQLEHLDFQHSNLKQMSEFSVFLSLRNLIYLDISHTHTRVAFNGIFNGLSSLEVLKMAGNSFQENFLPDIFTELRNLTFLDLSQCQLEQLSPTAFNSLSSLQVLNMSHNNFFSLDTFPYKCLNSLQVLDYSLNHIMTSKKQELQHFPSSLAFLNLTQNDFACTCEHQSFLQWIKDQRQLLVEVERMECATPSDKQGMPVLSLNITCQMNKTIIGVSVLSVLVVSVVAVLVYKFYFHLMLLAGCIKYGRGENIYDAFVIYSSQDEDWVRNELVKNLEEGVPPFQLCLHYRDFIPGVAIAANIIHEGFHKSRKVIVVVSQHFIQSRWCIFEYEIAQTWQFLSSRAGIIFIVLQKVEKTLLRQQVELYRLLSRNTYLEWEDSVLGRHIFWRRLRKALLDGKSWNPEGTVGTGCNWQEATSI
Sequence of Recombinant human TLR2 (rhTLR2), Glu21-Leu590 (O60603 21-590): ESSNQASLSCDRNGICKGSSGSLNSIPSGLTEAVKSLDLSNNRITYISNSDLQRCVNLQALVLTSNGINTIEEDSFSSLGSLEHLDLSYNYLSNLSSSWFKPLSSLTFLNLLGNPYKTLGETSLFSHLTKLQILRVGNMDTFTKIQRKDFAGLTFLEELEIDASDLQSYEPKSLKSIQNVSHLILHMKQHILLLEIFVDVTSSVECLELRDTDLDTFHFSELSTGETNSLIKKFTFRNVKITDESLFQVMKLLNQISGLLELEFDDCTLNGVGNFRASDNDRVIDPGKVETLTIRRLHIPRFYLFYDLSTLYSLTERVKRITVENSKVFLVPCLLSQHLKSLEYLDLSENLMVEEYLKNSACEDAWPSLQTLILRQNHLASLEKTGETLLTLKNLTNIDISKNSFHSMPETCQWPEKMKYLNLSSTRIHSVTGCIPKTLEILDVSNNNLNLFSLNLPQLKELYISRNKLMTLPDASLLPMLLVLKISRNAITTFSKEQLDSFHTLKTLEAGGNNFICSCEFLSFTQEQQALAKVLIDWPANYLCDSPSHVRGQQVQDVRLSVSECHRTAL

The Kd is a measure of binding affinity in units of concentration. On to MD2 (from UniProt Q9Y6Y9), for which the Kd with TLR4 (Homo sapiens) is 62.9 nM.
HMGB1 (from UniProt P09429): the dissociation constant Kd was 1500 nM with TLR4/MD2 (Homo sapiens) and 8 nM in the assay with MD2 (Homo sapiens).
In the case of B1, the Kd came to 33.1 nM in assay [1], 258 nM in assay [2], 239 nM in assay [3] and 617 nM in assay [4].
In the case of B2, the dissociation constant (Kd) came out at 302 nM in assay [5] and 53.7 nM in assay [4].
